Article PMC3776215

molecular target: Recombinant human urokinase-type plasminogen activator receptor (uPAR) (human) (UniProt Q03405); assay: SPR
Sequence of UniProt Q03405 (Q03405 23-305): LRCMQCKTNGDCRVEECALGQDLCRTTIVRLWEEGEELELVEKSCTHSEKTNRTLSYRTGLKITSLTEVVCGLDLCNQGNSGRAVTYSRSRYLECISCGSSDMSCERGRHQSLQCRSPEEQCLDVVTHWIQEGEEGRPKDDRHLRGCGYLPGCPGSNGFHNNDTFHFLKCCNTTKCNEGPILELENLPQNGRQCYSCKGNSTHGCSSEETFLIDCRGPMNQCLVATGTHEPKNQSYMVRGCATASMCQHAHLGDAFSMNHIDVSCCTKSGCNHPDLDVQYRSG

| Substance | IC50 [nM] | Kd [nM] | koff [s⁻¹] | kon [M⁻¹ s⁻¹] |
| --- | --- | --- | --- | --- |
| CB-TE2A-AE105^mut (peptide) | > 1000 |  |  |  |
| DOTA-AE105^mut (peptide) | > 1000 |  |  |  |
| CB-TE2A-PA-AE105^mut (peptide) | > 1000 |  |  |  |
| AE105 (Asp-Cha-Phe-(D)Ser-(D)Arg-Tyr-Leu-Trp-Ser) (peptide) | 6.7 |  |  | 620000 |

Results, then the substance that gave them:

| IC50 [nM] | Kd [nM] | koff [s⁻¹] | kon [M⁻¹ s⁻¹] | Substance |
| --- | --- | --- | --- | --- |
| 6.7 | 9.4 | 0.0043 | 460000 | DOTA-AE105 (peptide) |
| 6.1 | 27 | 0.0108 | 400000 | CB-TE2A-PA-AE105 (peptide) |
| 5.9 | 7.7 | 0.0046 |  | CB-TE2A-AE105 (peptide) |
